According to paper PMC10427625, “Structural basis for negative regulation of the Escherichia coli maltose system” (Nature Communications, 2023):
Where a chain is given by its changes, count along the chain named.

Columns and labels:
Assay in all cases: pull-down; GST-tagged MalY incubated with an excess of WT or mutant MalT on ice for 30 min, Glutathione Sepharose 4B, buffer TKCl with 0.1 mM ADP and 10 μM PLP; elution with 20 mM glutathione, SDS-PAGE, Coomassie
Conditions in all cases: both partners purified
[1] = biological target: T1, MalT-E140A, N-terminally His-tagged (Escherichia coli, UniProt P06993 1-901, E140A)
T1 construct: MalT of Escherichia coli, variant of plasmid pOM206 made by site-directed mutagenesis; source: E. coli BL21 (DE3) ΔmalT220, purified (Ni Sepharose, gel filtration)
T1 sequence (looked up): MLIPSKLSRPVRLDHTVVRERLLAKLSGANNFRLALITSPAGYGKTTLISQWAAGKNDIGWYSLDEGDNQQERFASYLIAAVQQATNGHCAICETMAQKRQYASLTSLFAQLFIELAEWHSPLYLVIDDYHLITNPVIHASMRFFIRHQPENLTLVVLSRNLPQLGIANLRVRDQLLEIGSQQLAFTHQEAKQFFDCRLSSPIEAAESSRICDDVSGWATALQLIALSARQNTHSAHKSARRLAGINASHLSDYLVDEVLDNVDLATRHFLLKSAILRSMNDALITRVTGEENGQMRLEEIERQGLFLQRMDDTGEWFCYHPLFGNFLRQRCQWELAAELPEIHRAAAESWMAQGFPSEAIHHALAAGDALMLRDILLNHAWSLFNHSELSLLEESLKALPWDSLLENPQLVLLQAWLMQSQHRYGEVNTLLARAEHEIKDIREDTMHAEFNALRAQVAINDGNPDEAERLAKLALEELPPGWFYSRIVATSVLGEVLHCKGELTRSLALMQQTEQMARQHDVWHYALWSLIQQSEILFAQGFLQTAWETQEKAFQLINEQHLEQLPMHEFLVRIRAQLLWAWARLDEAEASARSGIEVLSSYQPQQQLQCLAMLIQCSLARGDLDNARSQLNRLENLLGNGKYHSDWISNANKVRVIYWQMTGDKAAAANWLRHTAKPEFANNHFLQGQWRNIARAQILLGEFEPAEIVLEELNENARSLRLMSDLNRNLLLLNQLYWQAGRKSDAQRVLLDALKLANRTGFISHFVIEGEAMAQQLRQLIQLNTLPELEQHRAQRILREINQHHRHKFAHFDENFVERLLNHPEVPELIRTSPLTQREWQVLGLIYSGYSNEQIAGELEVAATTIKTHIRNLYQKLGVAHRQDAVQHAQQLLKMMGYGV

[2] = biological target: T2, MalT (wild type), N-terminally His-tagged (Escherichia coli, UniProt P06993 1-901)
T2 construct: Purified with 0.1 mM ADP or 0.4 mM ATP; the elution at 103 kDa fits the whole protein; In PDB 8BOB only residues 1-423 are well defined; also called WT MalT; MalT WT; source: E. coli BL21 (DE3) ΔmalT220, purified (Ni Sepharose, gel filtration)
T2 sequence (looked up): T1 sequence (looked up) with A140E

[3] = biological target: T3, MalT-N169A, N-terminally His-tagged (Escherichia coli, UniProt P06993 1-901, N169A)
T3 construct: MalT of Escherichia coli, variant of plasmid pOM206 made by site-directed mutagenesis; source: E. coli BL21 (DE3) ΔmalT220, purified (Ni Sepharose, gel filtration)
T3 sequence (looked up): T1 sequence (looked up) with A140E, N169A

Measured: binding result

B1: N-terminally GST-tagged MalY (enzyme, Escherichia coli, UniProt P23256 1-390, looked up)
chain: MFDFSKVVDRHGTWCTQWDYVADRFGTADLLPFTISDMDFATAPCIIEALNQRLMHGVFGYSRWKNDEFLAAIAHWFSTQHYTAIDSQTVVYGPSVIYMVSELIRQWSETGEGVVIHTPAYDAFYKAIEGNQRTVMPVALEKQADGWFCDMGKLEAVLAKPECKIMLLCSPQNPTGKVWTCDELEIMADLCERHGVRVISDEIHMDMVWGEQPHIPWSNVARGDWALLTSGSKSFNIPALTGAYGIIENSSSRDAYLSALKGRDGLSSPSVLALTAHIAAYQQGAPWLDALRIYLKDNLTYIADKMNAAFPELNWQIPQSTYLAWLDLRPLNIDDNALQKALIEQEKVAIMPGYTYGEEGRGFVRLNAGCPRSKLEKGVAGLINAIRAVR
notes: MalY of E. coli; full-length malY amplified from E. coli genomic DNA, cloned in pGEX-6P-1; Bait of the pull-down; 10 μM PLP present; not shown: GST, N-terminal, kept
binds: [1] | [2] | [3]
